According to US20130210709A1 (ANCHOR THERAPEUTICS, published 2013):
* marks the point of attachment. C27H50N3O2SC(O)‑ = not defined here; Palmitoyl = CCCCCCCCCCCCCCCC(=O)*

B1: CXCR4 i1 loop compound 41 (peptide)
peptide: Palmitoyl-KKLRSMTDKYRLHLSV-NH2
SMILES: CCCCCCCCCCCCCCCC(=O)N[C@@H](CCCCN)C(=O)N[C@@H](CCCCN)C(=O)N[C@@H](CC(C)C)C(=O)N[C@@H](CCCNC(=N)N)C(=O)N[C@@H](CO)C(=O)N[C@@H](CCSC)C(=O)N[C@H](C(=O)N[C@@H](CC(=O)O)C(=O)N[C@@H](CCCCN)C(=O)N[C@@H](Cc1ccc(O)cc1)C(=O)N[C@@H](CCCNC(=N)N)C(=O)N[C@@H](CC(C)C)C(=O)N[C@@H](Cc1c[nH]cn1)C(=O)N[C@@H](CC(C)C)C(=O)N[C@@H](CO)C(=O)N[C@H](C(N)=O)C(C)C)[C@@H](C)O
B2: CXCR4 i1 loop compound 42 (peptide)
peptide: Palmitoyl-KKLRSMTDKYRLHL-NH2
SMILES: CCCCCCCCCCCCCCCC(=O)N[C@@H](CCCCN)C(=O)N[C@@H](CCCCN)C(=O)N[C@@H](CC(C)C)C(=O)N[C@@H](CCCNC(=N)N)C(=O)N[C@@H](CO)C(=O)N[C@@H](CCSC)C(=O)N[C@H](C(=O)N[C@@H](CC(=O)O)C(=O)N[C@@H](CCCCN)C(=O)N[C@@H](Cc1ccc(O)cc1)C(=O)N[C@@H](CCCNC(=N)N)C(=O)N[C@@H](CC(C)C)C(=O)N[C@@H](Cc1c[nH]cn1)C(=O)N[C@@H](CC(C)C)C(N)=O)[C@@H](C)O
B3: CXCR4 i3 loop compound 99 (peptide)
peptide: Palmitoyl-HSKGHQKRKALKTTV-NH2
SMILES: CCCCCCCCCCCCCCCC(=O)N[C@@H](Cc1c[nH]cn1)C(=O)N[C@@H](CO)C(=O)N[C@@H](CCCCN)C(=O)NCC(=O)N[C@@H](Cc1c[nH]cn1)C(=O)N[C@@H](CCC(N)=O)C(=O)N[C@@H](CCCCN)C(=O)N[C@@H](CCCNC(=N)N)C(=O)N[C@@H](CCCCN)C(=O)N[C@@H](C)C(=O)N[C@@H](CC(C)C)C(=O)N[C@@H](CCCCN)C(=O)N[C@H](C(=O)N[C@H](C(=O)N[C@H](C(N)=O)C(C)C)[C@@H](C)O)[C@@H](C)O
B4: CXCR4 i3 loop compound 95 (peptide)
peptide: Palmitoyl-LSHSKGHQKRKALK-NH2
SMILES: CCCCCCCCCCCCCCCC(=O)N[C@@H](CC(C)C)C(=O)N[C@@H](CO)C(=O)N[C@@H](Cc1c[nH]cn1)C(=O)N[C@@H](CO)C(=O)N[C@@H](CCCCN)C(=O)NCC(=O)N[C@@H](Cc1c[nH]cn1)C(=O)N[C@@H](CCC(N)=O)C(=O)N[C@@H](CCCCN)C(=O)N[C@@H](CCCNC(=N)N)C(=O)N[C@@H](CCCCN)C(=O)N[C@@H](C)C(=O)N[C@@H](CC(C)C)C(=O)N[C@@H](CCCCN)C(N)=O
B5: CXCR4 i3 loop compound 89 (peptide)
peptide: Palmitoyl-KLSHSKGHQKRKALKTTVIL-NH2
SMILES: CCCCCCCCCCCCCCCC(=O)N[C@@H](CCCCN)C(=O)N[C@@H](CC(C)C)C(=O)N[C@@H](CO)C(=O)N[C@@H](Cc1c[nH]cn1)C(=O)N[C@@H](CO)C(=O)N[C@@H](CCCCN)C(=O)NCC(=O)N[C@@H](Cc1c[nH]cn1)C(=O)N[C@@H](CCC(N)=O)C(=O)N[C@@H](CCCCN)C(=O)N[C@@H](CCCNC(=N)N)C(=O)N[C@@H](CCCCN)C(=O)N[C@@H](C)C(=O)N[C@@H](CC(C)C)C(=O)N[C@@H](CCCCN)C(=O)N[C@H](C(=O)N[C@H](C(=O)N[C@H](C(=O)N[C@H](C(=O)N[C@@H](CC(C)C)C(N)=O)[C@@H](C)CC)C(C)C)[C@@H](C)O)[C@@H](C)O
B6: CXCR4 i3 loop compound 94 (peptide)
peptide: Palmitoyl-KLSHSKGHQKRKA-NH2
SMILES: CCCCCCCCCCCCCCCC(=O)N[C@@H](CCCCN)C(=O)N[C@@H](CC(C)C)C(=O)N[C@@H](CO)C(=O)N[C@@H](Cc1c[nH]cn1)C(=O)N[C@@H](CO)C(=O)N[C@@H](CCCCN)C(=O)NCC(=O)N[C@@H](Cc1c[nH]cn1)C(=O)N[C@@H](CCC(N)=O)C(=O)N[C@@H](CCCCN)C(=O)N[C@@H](CCCNC(=N)N)C(=O)N[C@@H](CCCCN)C(=O)N[C@@H](C)C(N)=O
B7: CXCR4 i3 loop compound 93 (peptide)
peptide: Palmitoyl-KLSHSKGHQKRKAL-NH2
SMILES: CCCCCCCCCCCCCCCC(=O)N[C@@H](CCCCN)C(=O)N[C@@H](CC(C)C)C(=O)N[C@@H](CO)C(=O)N[C@@H](Cc1c[nH]cn1)C(=O)N[C@@H](CO)C(=O)N[C@@H](CCCCN)C(=O)NCC(=O)N[C@@H](Cc1c[nH]cn1)C(=O)N[C@@H](CCC(N)=O)C(=O)N[C@@H](CCCCN)C(=O)N[C@@H](CCCNC(=N)N)C(=O)N[C@@H](CCCCN)C(=O)N[C@@H](C)C(=O)N[C@@H](CC(C)C)C(N)=O
B8: CXCR4 i3 loop compound 96 (peptide)
peptide: Palmitoyl-SHSKGHQKRKALK-NH2
SMILES: CCCCCCCCCCCCCCCC(=O)N[C@@H](CO)C(=O)N[C@@H](Cc1c[nH]cn1)C(=O)N[C@@H](CO)C(=O)N[C@@H](CCCCN)C(=O)NCC(=O)N[C@@H](Cc1c[nH]cn1)C(=O)N[C@@H](CCC(N)=O)C(=O)N[C@@H](CCCCN)C(=O)N[C@@H](CCCNC(=N)N)C(=O)N[C@@H](CCCCN)C(=O)N[C@@H](C)C(=O)N[C@@H](CC(C)C)C(=O)N[C@@H](CCCCN)C(N)=O
B9: CXCR4 i3 loop compound 97 (peptide)
peptide: Palmitoyl-HSKGHQKRKALKT-NH2
SMILES: CCCCCCCCCCCCCCCC(=O)N[C@@H](Cc1c[nH]cn1)C(=O)N[C@@H](CO)C(=O)N[C@@H](CCCCN)C(=O)NCC(=O)N[C@@H](Cc1c[nH]cn1)C(=O)N[C@@H](CCC(N)=O)C(=O)N[C@@H](CCCCN)C(=O)N[C@@H](CCCNC(=N)N)C(=O)N[C@@H](CCCCN)C(=O)N[C@@H](C)C(=O)N[C@@H](CC(C)C)C(=O)N[C@@H](CCCCN)C(=O)N[C@H](C(N)=O)[C@@H](C)O
B10: CXCR4 i3 loop compound 92 (peptide)
peptide: Palmitoyl-KLSHSKGHQKRKALK-NH2
SMILES: CCCCCCCCCCCCCCCC(=O)N[C@@H](CCCCN)C(=O)N[C@@H](CC(C)C)C(=O)N[C@@H](CO)C(=O)N[C@@H](Cc1c[nH]cn1)C(=O)N[C@@H](CO)C(=O)N[C@@H](CCCCN)C(=O)NCC(=O)N[C@@H](Cc1c[nH]cn1)C(=O)N[C@@H](CCC(N)=O)C(=O)N[C@@H](CCCCN)C(=O)N[C@@H](CCCNC(=N)N)C(=O)N[C@@H](CCCCN)C(=O)N[C@@H](C)C(=O)N[C@@H](CC(C)C)C(=O)N[C@@H](CCCCN)C(N)=O
B11: Compound No. 88 (Pal-SKLSHSKGHQKRKALKTTVIL-amide) (peptide)
peptide: Palmitoyl-SKLSHSKGHQKRKALKTTVIL-NH2
SMILES: CCCCCCCCCCCCCCCC(=O)N[C@@H](CO)C(=O)N[C@@H](CCCCN)C(=O)N[C@@H](CC(C)C)C(=O)N[C@@H](CO)C(=O)N[C@@H](Cc1c[nH]cn1)C(=O)N[C@@H](CO)C(=O)N[C@@H](CCCCN)C(=O)NCC(=O)N[C@@H](Cc1c[nH]cn1)C(=O)N[C@@H](CCC(N)=O)C(=O)N[C@@H](CCCCN)C(=O)N[C@@H](CCCNC(=N)N)C(=O)N[C@@H](CCCCN)C(=O)N[C@@H](C)C(=O)N[C@@H](CC(C)C)C(=O)N[C@@H](CCCCN)C(=O)N[C@H](C(=O)N[C@H](C(=O)N[C@H](C(=O)N[C@H](C(=O)N[C@@H](CC(C)C)C(N)=O)[C@@H](C)CC)C(C)C)[C@@H](C)O)[C@@H](C)O
B12: Compound No. 90 (Pal-KLSHSKGHQKRKALKTTV-amide) (peptide)
peptide: Palmitoyl-KLSHSKGHQKRKALKTTV-NH2
SMILES: CCCCCCCCCCCCCCCC(=O)N[C@@H](CCCCN)C(=O)N[C@@H](CC(C)C)C(=O)N[C@@H](CO)C(=O)N[C@@H](Cc1c[nH]cn1)C(=O)N[C@@H](CO)C(=O)N[C@@H](CCCCN)C(=O)NCC(=O)N[C@@H](Cc1c[nH]cn1)C(=O)N[C@@H](CCC(N)=O)C(=O)N[C@@H](CCCCN)C(=O)N[C@@H](CCCNC(=N)N)C(=O)N[C@@H](CCCCN)C(=O)N[C@@H](C)C(=O)N[C@@H](CC(C)C)C(=O)N[C@@H](CCCCN)C(=O)N[C@H](C(=O)N[C@H](C(=O)N[C@H](C(N)=O)C(C)C)[C@@H](C)O)[C@@H](C)O

Molecular target: T1, CXCR4 receptor (human, UniProt P61073 1-352)
T1 sequence (P61073 whole entry): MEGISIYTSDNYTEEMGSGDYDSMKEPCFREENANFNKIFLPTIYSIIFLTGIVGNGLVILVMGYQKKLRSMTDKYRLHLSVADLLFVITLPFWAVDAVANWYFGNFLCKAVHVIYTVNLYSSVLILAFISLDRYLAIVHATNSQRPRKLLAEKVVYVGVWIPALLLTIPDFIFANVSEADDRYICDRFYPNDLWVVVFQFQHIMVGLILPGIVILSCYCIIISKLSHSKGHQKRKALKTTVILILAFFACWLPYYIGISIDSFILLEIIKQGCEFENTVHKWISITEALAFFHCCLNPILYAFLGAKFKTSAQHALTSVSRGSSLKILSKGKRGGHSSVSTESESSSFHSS
Experiment: cell-based or functional assay

B1 was tested, and the “AUC (% of), CHTX, CEM, 1.0 uM” value was 66.7%.

Going from B1 to B2, the “AUC (% of), CHTX, SUP B-15, 1.0 uM” value falls from 51.7% to 43.8%.

In the case of B1, the “Max (% of), CHTX, CEM, 1.0 uM” value is reported as 76.8%.

Going from B1 to B2, the “Max (% of), CHTX, SUP B-15, 1.0 uM” value falls from 41.7% to 33.5%.

For B1, the “Peak Ratio, CHTX, CEM, 1.0 uM” value was 0.01.

Compared with B1, B2 is higher in “Peak Ratio, CHTX, SUP B-15, 1.0 uM” value: 0.04 for the first, 0.2 for the second.

For B2, the “Peak Ratio, CHTX, CEM, 1.0 uM (row labelled 46, sequence of 42)” value was 0.01.

Molecular target: T1, CXCR4 receptor
Experiment: cell-based or functional assay
Remark: another data set of the same source

First: B3
Second: B4
The “AUC (% of vehicle), chemotaxis, CEM, 1.0 uM” value (from here on “AUC (% of vehicle), chemotaxis”) of the first is lower: 45 % of vehicle for the first, 77.5 % of vehicle for the second.

First: B5
Second: {C27H50N3O2SC(O)‑}-HSKGHQKRKQALK-NH2 (reading uncertain) [CXCR4 i3 loop compound 87]
The “AUC (% of vehicle), chemotaxis” value of the first is lower: 37.5 % of vehicle for the first, 52.6 % of vehicle for the second.

Going from B6 to B7, the “AUC (% of vehicle), chemotaxis” value falls from 65.3 % of vehicle to 15.9 % of vehicle.

Going from B8 to B9, the “AUC (% of vehicle), chemotaxis” value rises from 34.2 % of vehicle to 48.9 % of vehicle.

For B11, the “AUC (% of vehicle), chemotaxis” value was 144 % of vehicle.

Compared with B3, B4 is higher in “Max (% of vehicle), chemotaxis, CEM, 1.0 uM” value (“Max (% of vehicle), chemotaxis” for short): 64.5 % of vehicle for the first, 92.1 % of vehicle for the second.

First: B5
Second: {C27H50N3O2SC(O)‑}-HSKGHQKRKQALK-NH2 (reading uncertain) [CXCR4 i3 loop compound 87]
The “Max (% of vehicle), chemotaxis” value of the first is lower: 59.7 % of vehicle for the first, 76.1 % of vehicle for the second.

First: B6
Second: B7
The “Max (% of vehicle), chemotaxis” value of the first is higher: 80.5 % of vehicle for the first, 54.8 % of vehicle for the second.

Compared with B8, B9 is lower in “Max (% of vehicle), chemotaxis” value: 63.1 % of vehicle for the first, 54.7 % of vehicle for the second.

In the case of B11, the “Max (% of vehicle), chemotaxis” value is reported as 132 % of vehicle.

First: B3
Second: B4
The “Peak Ratio, chemotaxis, CEM, 1.0 uM” value of the first is lower: 0.2 for the first, 1 for the second.

Going from B5 to {C27H50N3O2SC(O)‑}-HSKGHQKRKQALK-NH2 (reading uncertain) [CXCR4 i3 loop compound 87], the “Peak Ratio, chemotaxis, CEM, 1.0 uM” value rises from 0.04 to 0.2.

Going from B6 to B7, the “Peak Ratio, chemotaxis, CEM, 1.0 uM” value falls from 1 to 0.2.

Going from B8 to B9, the “Peak Ratio, chemotaxis, CEM, 1.0 uM” value falls from 1 to 0.2.

Going from B10 to B11, the “Peak Ratio, chemotaxis, CEM, 1.0 uM” value rises from 0.2 to 1.

Compared with B10, B11 is lower in “Peak Ratio, chemotaxis, CEM, 0.01 uM” value: 0.2 for the first, 0.04 for the second.

In the case of B12, the “Peak Ratio, chemotaxis, CEM, 0.01 uM” value is reported as 1.

Compared with B10, B11 is lower in “Peak Ratio, chemotaxis, CEM, 0.03 uM” value: 0.2 for the first, 0.04 for the second.

With B12 the “Peak Ratio, chemotaxis, CEM, 0.03 uM” value was 1.

Compared with B10, B11 is lower in “Peak Ratio, chemotaxis, CEM, 0.1 uM” value: 0.2 for the first, 0.04 for the second.

For B12, the “Peak Ratio, chemotaxis, CEM, 0.1 uM” value was 0.2.

B10 and B11 are the same in “Peak Ratio, chemotaxis, CEM, 0.3 uM” value: 0.2 for the first, 0.2 for the second.

In the case of B12, the “Peak Ratio, chemotaxis, CEM, 0.3 uM” value is reported as 1.

B10 and B11 are the same in “Peak Ratio, chemotaxis, CEM, 3.0 uM” value: 1 for the first, 1 for the second.

With B12 the “Peak Ratio, chemotaxis, CEM, 3.0 uM” value was 1.
